Data on 2 substances can be found in patent US20200062863A1 (CSL BEHRING, published 2020).

Assay [1] addresses T1, human FXIIa (human, UniProt P00748 20-615, limits assumed).
T1 sequence: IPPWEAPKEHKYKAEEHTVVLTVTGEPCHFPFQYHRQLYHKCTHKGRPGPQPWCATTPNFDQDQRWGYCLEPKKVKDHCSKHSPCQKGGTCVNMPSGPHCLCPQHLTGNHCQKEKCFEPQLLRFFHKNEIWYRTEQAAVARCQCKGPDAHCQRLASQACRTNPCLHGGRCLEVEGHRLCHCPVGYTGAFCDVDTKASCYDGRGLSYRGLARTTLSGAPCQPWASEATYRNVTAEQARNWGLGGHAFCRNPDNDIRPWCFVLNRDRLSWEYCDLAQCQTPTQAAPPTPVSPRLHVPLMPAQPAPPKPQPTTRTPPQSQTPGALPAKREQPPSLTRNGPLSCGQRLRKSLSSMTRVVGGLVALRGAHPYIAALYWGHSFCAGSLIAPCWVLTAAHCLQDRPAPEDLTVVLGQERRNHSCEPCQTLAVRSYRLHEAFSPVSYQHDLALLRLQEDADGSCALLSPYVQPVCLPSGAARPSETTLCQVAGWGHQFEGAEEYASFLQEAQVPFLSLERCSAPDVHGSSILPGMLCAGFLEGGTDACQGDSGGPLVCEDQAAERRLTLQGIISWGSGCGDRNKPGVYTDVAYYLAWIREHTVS

The target of the next assay is T2, human Factor XII (human, UniProt P00748 20-615).
T2 construct: Zymogen bought from Enzyme Research Laboratories; also called FXII
T2 sequence: T1 sequence
In words: SPR (Biacore), purified IgG captured on anti-mouse Fc antibody, FXII 0-500 nM, 1:1 fit, 25 C.

For a further assay, the target named is T3, human Factor XIIa-alpha (human, UniProt P00748 20-615).
T3 sequence: T1 sequence
In words: cell-based or functional assay.

Another assay addresses T4, human Factor XIIa-beta (human, UniProt P00748 354-615, limits assumed).
T4 construct: Bought from Enzyme Research Laboratories; also called FXIIa beta; FXIIa-beta
T4 sequence: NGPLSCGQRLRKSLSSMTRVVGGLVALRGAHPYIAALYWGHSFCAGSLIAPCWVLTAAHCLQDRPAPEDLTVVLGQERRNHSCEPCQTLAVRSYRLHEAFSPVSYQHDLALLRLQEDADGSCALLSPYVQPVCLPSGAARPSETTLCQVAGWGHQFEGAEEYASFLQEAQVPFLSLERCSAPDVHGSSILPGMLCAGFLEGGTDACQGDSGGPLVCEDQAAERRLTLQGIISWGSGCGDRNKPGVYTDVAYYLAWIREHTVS
In words: SPR (Biacore), purified IgG captured on anti-mouse Fc antibody, FXIIa beta 0-40 nM, 1:1 fit, 25 C.

Assay [2] has as its target T1, human FXIIa. In words: competition phage ELISA on plate-coated FXIIa; competed binder: 3H4 Fab-phage at a fixed amount.
The target in assay [3] is T1, human FXIIa. In words: competition phage ELISA on plate-coated FXIIa; competed binder: 3F7 Fab-phage at a fixed amount.
Assay [4] deals with T1, human FXIIa. In words: competition phage ELISA on plate-coated FXIIa; competed binder: Inf4-phage (pTacInf4) at a fixed amount.
The target in assay [5] is T1, human FXIIa. The source holds these as a separate data set.

Several values for one entry are separate records, joined by “and”; a condition that tells them apart may be missing. Equal values may be shown once. Read-outs that look alike come from different tables or passages of the source.

On to Anti-human FXII antibody (OT-2), for which, in the assay with human FXIIa [1], the m3 (parameter of the curve fit, printed in the legend box; x axis Ab in nM) of the inhibition of FXIIa amidolytic activity, OD405 is 12.9 and 13.5. Further, the Kd with human Factor XII is 0.69 nM. In the assay with human Factor XIIa-alpha, the % Inhibition, ratio FXIIa-alpha:Antibody 1:0.1 was 21.6%; the % Inhibition, ratio FXIIa-alpha:Antibody 1:0.2 turned out to be 37.7%; the % Inhibition, ratio FXIIa-alpha:Antibody 1:0.5 was 76.6%; the % Inhibition, ratio FXIIa-alpha:Antibody 1:1 worked out at 92.7%. Also, in the assay with human Factor XIIa-alpha, the % Inhibition, ratio FXIIa-alpha:Antibody 1:2 turned out to be 96.9%; the % Inhibition, ratio FXIIa-alpha:Antibody 1:5 is 100%; the % Inhibition, ratio FXIIa-alpha:Antibody 1:10 amounted to 100%. In addition, the Kd with human Factor XIIa-beta was found to be 0.76 nM.
With “rHA-Infestin-4 (recombinant Infestin-4 fused to human albumin)”, the IC50 (read off the curve) with human FXIIa [2] was 5 nM; with human FXIIa [3] it was 5 nM; with human FXIIa [4] it was 3 nM; in the assay with human FXIIa [5], 9 nM. Besides, in the assay with human Factor XIIa-alpha, the % Inhibition, ratio FXIIa-alpha:inhibitor 1:1 was determined as 90%.
